Molecular target: STX17-Flag (UniProt P56962)
Assay: co-IP

reduction of the co-immunoprecipitated interaction against STING WT: 50%
Substance: STING-HA C148A (from UniProt Q86WV6 1-379) (natural protein)

Source: article PMC9082627
